According to the supplement of paper PMC10567573:

B1: INTS3 (parent)
chain: KKREFRFHPIKETVVEEPVDITPY
B2: FANCE (parent)
chain: AQVLMLGQILELPWKEETFLVLQS

Variants of: B1
Experiment: protein stability index of a GFP-peptide fusion (GPS, HEK-293T) (PSI 1-6); higher = more stable
Details: c terminus: a fixed tail appended
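Note: lentivirally expressed fusions sorted by FACS into six bins by GFP to DsRed ratio, PSI derived from sequencing read proportions per bin multiplied by bin number.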

Variant	protein stability index
V14H	1.89
V14W	1.91
V14R	1.35
V14M	2.19
V14D	2.58
V14A	1.52
V14L	1.82
V14Y	1.89
V14Q	3.65
V14E	1.95
V14C	1.98
V14N	1.99
V14I	1.91
V14P	1.64
V14F	1.71
V14S	3.05
V14G	1.63
V14K	1.53
V14T	1.42
T22R	1.99
T22H	2.23
T22Y	2.26
T22N	1.72
T22E	1.97
T22I	1.96

Variant	protein stability index
T22M	1.89
T22C	1.82
T22Q	1.93
T22F	2.57
T22V	1.58
T22A	1.45
T22S	2.33
T22K	1.88
T22L	2.33
T22G	2.03
T22P	1.86
T22D	2.12
T22W	1.3
H8D	4.47
H8T	3.34
H8K	4.01
H8M	3.79
H8Y	3.43
H8G	3.93
H8V	2.49
H8S	3.54
H8L	3.97
H8Q	3.45
H8P	4.58
H8C	3.25

Variant	protein stability index
H8E	3.55
H8I	2.8
H8R	4.07
H8W	3.41
H8F	3.49
H8N	3.96
E16N	2.39
E16L	1.88
E16T	2.16
E16G	2.47
E16V	1.95
E16H	1.83
E16F	2.4
E16I	2.29
E16C	2.46
E16Y	2.36
E16W	2.1
E16K	2.5
E16M	1.41
E16P	2.54
E16Q	1.86
E16S	1.82
E16D	2.18
E16R	2.73
E16A	1.73

Variant	protein stability index
E12I	2.61
E12A	1.97
E12C	2.05
E12D	1.87
E12F	2.96
E12N	1.86
E12Y	2
E12Q	2.48
E12W	2.98
E12P	1.92
E12M	2.43
E12L	3.92
E12K	2.19
E12S	1.56
E12T	1.39
E12R	1.94
E12H	2.17
E12G	2.93
Y24A	2.59
Y24L	2.17
Y24Q	2.04
Y24I	2.33
Y24D	2.44
Y24M	1.76
Y24V	2.26

Variant	protein stability index
Y24R	1.47
Y24H	1.99
Y24P	2.17
Y24T	2.24
Y24S	1.84
Y24G	2.44
Y24K	1.71
Y24W	1.88
Y24F	2.18
Y24C	2.16
Y24E	2.38
Y24N	2.03
V15N	1.75
V15M	2.13
V15D	2.35
V15F	1.91
V15A	2.01
V15G	1.49
V15W	1.53
V15C	1.68
V15S	1.58
V15I	1.67
V15P	2.13
V15E	2.41
V15R	1.98

Variant	protein stability index
V15L	1.73
V15Y	1.84
V15K	1.39
V15T	1.75
V15Q	2
V15H	1.82
K11R	1.88
K11A	1.82
K11P	2.33
K11D	2.72
K11W	1.61
K11L	2.72
K11M	2.64
K11F	2.56
K11G	2.04
K11E	2.5
K11N	1.71
K11I	1.85
K11Y	2.7
K11V	2.36
K11C	2.15
K11S	2.31
K11Q	1.82
K11T	1.97
K11H	2.04

Variant	protein stability index
I10L	1.75
I10K	2.02
I10H	2.09
I10C	1.51
I10D	2.28
I10W	3.25
I10G	2.3
I10E	2.4
I10Q	1.83
I10Y	4.54
I10S	1.64
I10T	2.27
I10R	1.41
I10A	2.08
I10F	2.69
I10P	1.9
I10M	1.87
I10V	1.98
I10N	2.84
T13R	1.79
T13Q	1.96
T13M	1.57
T13P	1.75
T13L	1.43
T13E	2.39

Variant	protein stability index
T13F	1.54
T13V	2.12
T13I	1.58
T13K	1.96
T13G	2.33
T13D	2.19
T13W	2.56
T13N	1.63
T13C	2.38
T13H	2.06
T13Y	3.62
T13A	1.92
T13S	1.55
V19N	2.02
V19C	2.01
V19G	1.98
V19P	2.06
V19E	2.28
V19T	1.88
V19I	1.51
V19H	1.76
V19A	2.67
V19D	2.13
V19F	1.77
V19K	1.88

Variant	protein stability index
V19R	2.37
V19Q	1.8
V19M	2.23
V19Y	2.28
V19L	1.7
V19S	2.25
V19W	1.38
P9T	2.42
P9S	2.04
P9M	2.17
P9I	2.18
P9N	3.02
P9V	2.63
P9K	2.59
P9L	1.9
P9H	2.83
P9W	1.81
P9F	2.17
P9A	2.5
P9D	3.8
P9E	3.18
P9Y	1.99
P9R	2.3
P9G	2.5
P9Q	2.17

Variant	protein stability index
P9C	2.03
D20I	1.7
D20K	1.05
D20Q	2.02
D20T	1.67
D20C	1.61
D20A	1.26
D20V	1.65
D20W	1.6
D20P	1.79
D20L	1.56
D20R	2.22
D20Y	2.16
D20G	2.15
D20F	2.48
D20H	2.25
D20S	1.04
D20N	2.2
D20M	1.96
D20E	2.35
P23V	1.44
P23L	1.84
P23F	1.67
P23E	3.24
P23M	2.4

Variant	protein stability index
P23I	1.5
P23G	3.45
P23R	1.55
P23Q	1.88
P23W	2.28
P23Y	2.87
P23T	1.46
P23K	1.99
P23H	1.74
P23S	1.61
P23C	2.08
P23A	1.66
P23D	2.04
P23N	1.84
E17F	1.89
E17Y	2.06
E17P	1.59
E17G	2.26
E17Q	2.42
E17D	1.79
E17H	1.62
E17K	1.43
E17I	2.6
E17L	2.15
E17M	1.95

Variant	protein stability index
E17N	2.19
E17W	2.46
E17C	1.97
E17T	2.13
E17R	2.32
E17V	2.02
E17A	1.79
E17S	2.24
I21W	2.1
I21F	1.92
I21G	1.49
I21M	1.7
I21N	2
I21V	2.63
I21K	2.02
I21R	1.59
I21P	2.5
I21H	1.59
I21A	1.76
I21E	2.37
I21C	2.01
I21Y	1.56
I21T	1.95
I21L	2.01
I21Q	2.43

Variant	protein stability index
I21S	1.21
I21D	2.37
P18S	1.79
P18F	2.72
P18A	1.87
P18H	1.74
P18W	2.29
P18G	1.79
P18N	2.26
P18K	2.62
P18V	1.83
P18Y	3.25
P18R	2.78
P18E	2.05
P18D	2.12
P18I	1.64
P18L	1.85
P18M	1.99
P18T	1.36
P18Q	2.06
P18C	1.86

Variants of: B2
Experiment: as above
Details: c terminus: a fixed tail appended

Variant	protein stability index
K15W	2.14
K15N	1.94
L10M	2.01
E11K	2.65
L6I	3.28
V3G	1.85
V3Q	1.72
V3K	1.32
P13D	2.95
L4A	2.02
V21F	2.56
L20Y	3.73
Q23G	2.42
